Measured values: patent US20200102387A1 (CELGENE, published 2020)

What was measured:
[1] = target: T1, extracellular domain of SIRPα v1-DLN (e.g. SIRPα1) (human, UniProt P78324 31-373); experiment: SPR Biacore T200, antibody captured on Protein A chip
T1 construct: also called hSIRPα - ECD (v1)

[2] = target: T2, SIRPβ extracellular domain (human, UniProt O00241 30-371); experiment: as above
T2 construct: also called hSIRPβ - ECD
T2 chain: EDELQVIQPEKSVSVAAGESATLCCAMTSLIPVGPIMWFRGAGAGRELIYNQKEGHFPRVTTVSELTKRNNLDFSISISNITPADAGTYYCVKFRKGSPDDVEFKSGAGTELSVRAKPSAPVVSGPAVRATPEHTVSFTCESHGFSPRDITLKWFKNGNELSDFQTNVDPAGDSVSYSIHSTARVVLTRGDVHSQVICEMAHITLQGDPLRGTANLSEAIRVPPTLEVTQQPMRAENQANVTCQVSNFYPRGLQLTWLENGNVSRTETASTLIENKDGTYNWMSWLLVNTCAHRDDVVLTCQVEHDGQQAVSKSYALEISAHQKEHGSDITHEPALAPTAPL

[3] = target: T3, SIRPγ extracellular domain (human, UniProt Q9P1W8 29-360); experiment: as above
T3 construct: also called hSIRPγ - ECD

[4] = target: T4, human SIRPα on cells (human, UniProt P78324 31-504); experiment: cell-based or functional assay
[5] = target: T2, SIRPβ extracellular domain; experiment: SPR Biacore T200, antibody on Protein A chip, 1:1 Langmuir fit
[6] = target: T3, SIRPγ extracellular domain; experiment: as above
[7] = target: T5, cynomolgus SIRPα on cells (cynomolgus, UniProt P78324 31-373 (human entry)); experiment: flow cytometry, cyno SIRPα-CHO cells, anti-human IgG-AF647 detection
T5 construct: also called cyno SIRPα-CHO; Cyno SIRPα-CHO-K1; not shown: Transmembrane and cytoplasmic region of cynomolgus SIRPα
T5 chain: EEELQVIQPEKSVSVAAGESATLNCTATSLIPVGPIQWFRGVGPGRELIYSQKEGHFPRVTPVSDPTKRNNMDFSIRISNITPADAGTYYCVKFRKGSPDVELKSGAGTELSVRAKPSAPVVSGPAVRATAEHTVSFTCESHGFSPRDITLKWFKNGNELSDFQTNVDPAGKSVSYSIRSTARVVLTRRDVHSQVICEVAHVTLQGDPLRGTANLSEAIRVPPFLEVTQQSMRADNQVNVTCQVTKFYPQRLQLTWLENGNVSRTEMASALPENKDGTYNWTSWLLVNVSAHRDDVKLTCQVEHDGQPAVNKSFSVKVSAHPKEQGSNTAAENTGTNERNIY

[8] = target: T6, FcγR3A (CD16aV158) (human, UniProt P08637 17-254); experiment: cell binding, FcγR-engineered HEK293 cells
T6 construct: whole, on cells

[9] = target: T7, FcγR2B (human, UniProt P31994 43-310); experiment: cell binding, FcγR-engineered HEK293 cells
T7 construct: whole, on cells
T7 sequence (looked up): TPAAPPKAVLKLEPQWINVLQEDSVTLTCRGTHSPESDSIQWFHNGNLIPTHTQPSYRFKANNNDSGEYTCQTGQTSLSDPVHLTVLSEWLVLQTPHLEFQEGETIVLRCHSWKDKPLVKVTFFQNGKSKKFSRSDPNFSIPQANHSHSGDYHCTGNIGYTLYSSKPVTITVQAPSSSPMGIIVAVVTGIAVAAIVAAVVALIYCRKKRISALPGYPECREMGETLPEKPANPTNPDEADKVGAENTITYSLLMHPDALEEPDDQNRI

[10] = target: T8, FcγR1 (CD64) (human, UniProt P12314 16-374); experiment: cell binding, FcγR-engineered HEK293 cells
T8 construct: whole, on cells

[11] = target: T9, FcγR3A (CD16aF158) (human, UniProt P08637 17-254); experiment: cell binding, FcγR-engineered HEK293 cells
T9 construct: whole, on cells

[12] = target: T10, FcγR2A (CD32aR131) (human, UniProt P12318 34-317); experiment: cell binding, FcγR-engineered HEK293 cells
T10 construct: whole, on cells
T10 sequence (looked up): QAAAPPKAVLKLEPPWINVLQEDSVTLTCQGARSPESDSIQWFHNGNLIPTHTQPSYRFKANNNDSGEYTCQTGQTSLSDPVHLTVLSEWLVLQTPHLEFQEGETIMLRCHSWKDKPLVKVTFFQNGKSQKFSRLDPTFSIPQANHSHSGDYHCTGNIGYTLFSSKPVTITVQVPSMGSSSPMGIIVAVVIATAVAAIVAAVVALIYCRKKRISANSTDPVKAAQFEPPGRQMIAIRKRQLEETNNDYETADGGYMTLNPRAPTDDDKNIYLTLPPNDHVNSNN

[13] = target: T4, human SIRPα on cells; experiment: cell-based or functional assay; remark: listed apart in the source

T3 sequence (Q9P1W8 29-360 limits assumed): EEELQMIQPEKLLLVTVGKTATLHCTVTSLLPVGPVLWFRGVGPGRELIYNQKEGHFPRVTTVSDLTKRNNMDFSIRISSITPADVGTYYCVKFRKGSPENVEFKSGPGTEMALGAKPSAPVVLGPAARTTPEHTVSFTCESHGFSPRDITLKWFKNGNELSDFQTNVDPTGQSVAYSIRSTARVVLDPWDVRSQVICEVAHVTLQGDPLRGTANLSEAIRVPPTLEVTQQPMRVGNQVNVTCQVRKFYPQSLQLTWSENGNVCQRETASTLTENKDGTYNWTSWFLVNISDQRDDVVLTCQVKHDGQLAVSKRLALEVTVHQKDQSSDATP
T8 sequence (P12314 16-374): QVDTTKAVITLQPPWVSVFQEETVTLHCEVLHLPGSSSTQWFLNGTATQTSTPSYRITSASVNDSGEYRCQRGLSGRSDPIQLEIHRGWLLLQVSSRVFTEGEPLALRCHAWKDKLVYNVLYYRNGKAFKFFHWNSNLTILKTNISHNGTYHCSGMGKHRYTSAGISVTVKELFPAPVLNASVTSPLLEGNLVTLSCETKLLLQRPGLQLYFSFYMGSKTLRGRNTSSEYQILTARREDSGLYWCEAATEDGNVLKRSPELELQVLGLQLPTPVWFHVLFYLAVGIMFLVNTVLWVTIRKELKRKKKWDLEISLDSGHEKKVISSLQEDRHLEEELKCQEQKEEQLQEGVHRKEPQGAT
T6 sequence (P08637 17-254 F176V): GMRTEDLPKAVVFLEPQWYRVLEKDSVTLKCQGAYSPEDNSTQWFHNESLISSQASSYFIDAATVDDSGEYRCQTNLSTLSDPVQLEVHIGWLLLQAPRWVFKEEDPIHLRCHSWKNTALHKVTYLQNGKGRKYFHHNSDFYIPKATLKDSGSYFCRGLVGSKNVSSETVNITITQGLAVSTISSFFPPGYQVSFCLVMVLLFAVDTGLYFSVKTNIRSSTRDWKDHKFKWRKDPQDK
T9 sequence (P08637 17-254): as the sequence (P08637 17-254 F176V) above, with V160F counted along it

- Kd [1]: 0.0152 nM
- koff [1]: 0.000118 s⁻¹
- kon [1]: 7.75e+06 M⁻¹ s⁻¹
- Kd [2]: 12.1 nM
- koff [2]: 0.000614 s⁻¹
- kon [2]: 50600 M⁻¹ s⁻¹
- Kd [3]: 0.0101 nM
- koff [3]: 0.000188 s⁻¹
- kon [3]: 1.71e+07 M⁻¹ s⁻¹
- EC50 of percent phagocytic macrophages; FaDu; donor 358; 0.2 nM cetuximab [4]: 0.075 nM
- EC50 of percent phagocytic macrophages; FaDu; donor 358; 1 nM cetuximab [4]: 0.049 nM
- EC50 of percent phagocytic macrophages; GP2d; donor 338; 0.2 nM cetuximab [4]: 0.657 nM
- EC50 of percent phagocytic macrophages; GP2d; donor 338; 1 nM cetuximab [4]: 0.495 nM
- EC50 of percent phagocytic macrophages; GP2d; donor 358; 0.2 nM cetuximab [4]: 16.2 nM
- EC50 of percent phagocytic macrophages; GP2d; donor 358; 1 nM cetuximab [4]: 0.247 nM
- EC50 of percent phagocytic macrophages; GP2d; mean; 0.2 nM cetuximab [4]: 8.43 nM
- EC50 of percent phagocytic macrophages; GP2d; mean; 1 nM cetuximab [4]: 0.371 nM
- EC50 of percent phagocytic macrophages; GP5d; donor 338; 0.2 nM cetuximab [4]: 0.543 nM
- EC50 of percent phagocytic macrophages; GP5d; donor 338; 1 nM cetuximab [4]: 0.714 nM
- EC50 of percent phagocytic macrophages; GP5d; donor 358; 0.2 nM cetuximab [4]: 0.886 nM
- EC50 of percent phagocytic macrophages; GP5d; donor 358; 1 nM cetuximab [4]: 0.162 nM
- EC50 of percent phagocytic macrophages; GP5d; mean; 0.2 nM cetuximab [4]: 0.715 nM
- EC50 of percent phagocytic macrophages; GP5d; mean; 1 nM cetuximab [4]: 0.438 nM
- EC50 of percent phagocytic macrophages; SW480; donor 338; 0.2 nM cetuximab [4]: 0.2 nM
- EC50 of percent phagocytic macrophages; SW480; donor 338; 1 nM cetuximab [4]: 0.461 nM
- EC50 of percent phagocytic macrophages; SW480; donor 358; 0.2 nM cetuximab [4]: 2.06 nM
- EC50 of percent phagocytic macrophages; SW480; donor 358; 1 nM cetuximab [4]: 0.102 nM
- EC50 of percent phagocytic macrophages; SW480; mean; 0.2 nM cetuximab [4]: 1.13 nM
- EC50 of percent phagocytic macrophages; SW480; mean; 1 nM cetuximab [4]: 0.282 nM
- Kd [5]: 0.38 nM
- Kd [6]: 0.0632 nM
- EC50 [7]: 1.9 nM
- EC50 [8]: 795 nM
- EC50 [9]: 2480 nM
- EC50 [10]: 0.79 nM
- EC50 [11]: 1200 nM
- EC50 [12]: 194 nM
- mean EC50 (n=2 donors) of percent phagocytic macrophages; OCI-LY3; with 0.1 nM rituximab [13]: 0.11 nM
B1: SIRPAB-11-K322A (antibody, human IgG1, kappa)
light: DIQMTQSPSSVSASVGDRVTITCRASQGISSWLAWYQQKPGKAPKLLIYAASNLQSGVPSRFSGSGSGTDFTLTISSLQPEDFATYYCQQGASFPITFGGGTKVEIKRTVAAPSVFIFPPSDEQLKSGTASVVCLLNNFYPREAKVQWKVDNALQSGNSQESVTEQDSKDSTYSLSSTLTLSKADYEKHKVYACEVTHQGLSSPVTKSFNRGEC
heavy: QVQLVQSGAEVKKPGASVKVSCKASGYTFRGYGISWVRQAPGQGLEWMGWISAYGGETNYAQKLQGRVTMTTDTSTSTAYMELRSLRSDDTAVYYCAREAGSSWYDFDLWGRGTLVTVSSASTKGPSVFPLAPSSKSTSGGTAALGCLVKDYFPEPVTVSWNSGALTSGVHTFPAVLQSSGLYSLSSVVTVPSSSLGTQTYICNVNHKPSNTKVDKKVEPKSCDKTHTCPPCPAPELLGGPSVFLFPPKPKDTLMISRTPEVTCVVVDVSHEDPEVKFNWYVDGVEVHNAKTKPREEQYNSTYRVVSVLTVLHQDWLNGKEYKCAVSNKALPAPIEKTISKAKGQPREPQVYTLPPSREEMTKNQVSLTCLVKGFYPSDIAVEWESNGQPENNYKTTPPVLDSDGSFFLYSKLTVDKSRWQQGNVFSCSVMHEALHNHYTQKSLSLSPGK
notes: human IgG1 with K322A (EU numbering); also called SIRPAB-11-IgG1-K322A; SIRPAB-11-K322A-AlexaFluor647
